Measured values from patent US20150147270A1.

Legend:
[1] = molecular target: mouse F4/80 receptor expressed on macrophages (RAW 264.7 cells) (mouse) (UniProt Q61549); test: cell-based or functional assay
[2] = molecular target: mouse F4/80 receptor expressed on macrophages (RAW 264.7 cells) (mouse) (UniProt Q61549); test: SPR (BI-2000), Fab'-covered NPs on a carboxydextran gold chip, RAW 264.7 cells injected at 10k cells/mL
[3] = molecular target: mouse F4/80 receptor expressed on macrophages (RAW 264.7 cells) (mouse) (UniProt Q61549); test: SPR (BI-2000), Fab'-covered NPs on a carboxydextran gold chip, RAW 264.7 cells injected at 5k cells/mL
[4] = molecular target: mouse F4/80 receptor expressed on macrophages (RAW 264.7 cells) (mouse) (UniProt Q61549); test: SPR (BI-2000), Fab'-covered NPs on a carboxydextran gold chip, RAW 264.7 cells injected at 7.5k cells/mL
[5] = molecular target: mouse F4/80 receptor expressed on macrophages (RAW 264.7 cells) (mouse) (UniProt Q61549); test: SPR (BI-2000), Fab'-covered NPs on a carboxydextran gold chip, RAW 264.7 cells injected at 2.5k cells/mL
[6] = molecular target: mouse F4/80 receptor expressed on macrophages (RAW 264.7 cells) (mouse) (UniProt Q61549); test: SPR, antibody-covered NPs coated on a gold chip, Raw 264.7 cells injected

Chain of UniProt Q61549 (Q61549 28-931): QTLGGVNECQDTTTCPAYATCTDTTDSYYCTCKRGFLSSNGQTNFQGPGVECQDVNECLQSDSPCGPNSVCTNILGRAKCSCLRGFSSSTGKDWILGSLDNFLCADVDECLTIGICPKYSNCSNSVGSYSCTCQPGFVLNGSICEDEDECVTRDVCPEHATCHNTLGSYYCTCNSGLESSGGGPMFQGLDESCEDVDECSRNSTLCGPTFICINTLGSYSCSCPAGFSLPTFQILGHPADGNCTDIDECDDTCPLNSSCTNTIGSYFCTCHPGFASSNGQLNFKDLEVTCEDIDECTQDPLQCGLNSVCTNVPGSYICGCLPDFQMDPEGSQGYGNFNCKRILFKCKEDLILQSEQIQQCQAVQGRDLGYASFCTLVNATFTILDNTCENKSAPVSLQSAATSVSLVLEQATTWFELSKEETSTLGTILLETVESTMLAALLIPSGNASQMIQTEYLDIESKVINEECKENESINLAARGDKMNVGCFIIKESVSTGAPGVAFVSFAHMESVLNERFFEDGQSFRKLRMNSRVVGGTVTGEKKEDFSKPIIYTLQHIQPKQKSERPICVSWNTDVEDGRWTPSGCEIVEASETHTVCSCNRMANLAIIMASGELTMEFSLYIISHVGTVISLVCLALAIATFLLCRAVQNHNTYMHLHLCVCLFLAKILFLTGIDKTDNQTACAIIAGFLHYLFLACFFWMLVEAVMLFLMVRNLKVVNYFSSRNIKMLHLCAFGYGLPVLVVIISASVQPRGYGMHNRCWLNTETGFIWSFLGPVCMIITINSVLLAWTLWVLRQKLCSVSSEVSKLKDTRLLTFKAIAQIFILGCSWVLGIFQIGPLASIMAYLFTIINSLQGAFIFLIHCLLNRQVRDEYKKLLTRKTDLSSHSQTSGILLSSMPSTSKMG

Substance	average fluorescent intensity per unit of surface area of RAW 264.7 cells exposed to NPs loaded with FITC-tagged siRNA (15 minutes, 500 ug/mL); non-coated NPs gave 10279 AU/um^2 [1] [AU/µm^2]	percent of colonic MPs (CD11c(-)CD11b(+)F4/80(+)) with positive FITC signals by flow cytometry after gavage of DSS-treated mice with NPs loaded with FITC-tagged siRNA; non-coated NPs gave 19% [1] [%]	resonance angle deviation [2] [mDeg]	resonance angle deviation [3] [mDeg]	resonance angle deviation [4] [mDeg]	resonance angle deviation [5] [mDeg]	binding coefficient [6]
Fab' fragment of the F4/80 antibody covalently attached to PLA-PEG nanoparticles	51300	28	42	17	33	13	–
mouse F4/80 antibody grafted onto maleimide-polyethyleneglycol-poly(lactic acid) nanoparticles	–	–	–	–	–	–	50
